The target in one assay is T1, FGF23 (Homo sapiens, UniProt Q9GZV9).
T1 construct: purchased R&D Systems 2604FG025/CF (human) or 2629FG025/CF (mouse)
T1 sequence (Q9GZV9 25-251): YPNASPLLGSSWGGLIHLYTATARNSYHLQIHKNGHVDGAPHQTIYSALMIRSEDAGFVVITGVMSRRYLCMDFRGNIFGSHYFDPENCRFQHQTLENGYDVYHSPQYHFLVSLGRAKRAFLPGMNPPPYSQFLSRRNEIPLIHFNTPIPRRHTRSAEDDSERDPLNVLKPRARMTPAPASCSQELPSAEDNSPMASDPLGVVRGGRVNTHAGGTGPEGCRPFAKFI
The assay is described as follows: Plate-based binding assay, FGF23 coated, FLAG-sKL detected with anti-FLAG HRP. Particulars: 100 ng FGF23 coated. On the procedure:
(§1) Proteins were coated on 96-well plates (MaxiSorp; 439454, Thermo Fisher Scientific), and proteins were added to wells in 100 μl of enzyme-linked immunosorbent assay (ELISA) coating buffer (E107, Bethyl Laboratories) with a lid placed overtop and incubated at 4° C. overnight. Plates were washed 5× with 350 μl of assay buffer (50 mM Tris [pH 7.4], 200 mM NaCl, 0.01% Tween 20) on a 50 TS microplate washer (BioTek). Plates were blocked for 1 hour in 200 μl of assay buffer with 0.5% BSA. Plates were washed as before, and proteins were incubated on plates in 100 μl of assay buffer with 0.5% BSA. Proteins or heparin was incubated in orders described in the respective figure legends. Assays using FLAG-tag-based detection were incubated with anti-FLAG coupled to HRP at 1:20,000, and assays using Fc detection were incubated with anti-human Fc coupled to HRP at 1:10,000. Plates were washed as above, and 100 μl of 3,3′,5,5′-tetramethylbenzidine (TMB) substrate (E102, Bethyl Laboratories) was added for 15 to 20 minutes until positive wells developed a dark blue color. Reactions were stopped with ELISA stop solution (E115, Bethyl Laboratories) and analyzed using the Synergy HI plate reader (BioTek) at 450 nm wavelength. […] As a control to remove background absorbance values, wells were coated with an equal amount of BSA to match the amount of protein coated in experimental wells and treated the same as experimental wells. To study the effects of sKL on the binding between paracrine FGFs and FGFRs, plates were run as above except coated with paracrine FGFs. Fc-FGFR1 was preincubated with sKL or vehicle for 60 minutes, and then the combination was added to wells and the assay was run as before.

The next assay addresses T2, FGFR1c (Homo sapiens, UniProt P11362).
T2 construct: Fc-coupled FGFR ectodomains were immobilized on protein A/G beads; purchased R&D Systems 658FR050
T2 sequence (P11362 22-376 limits assumed): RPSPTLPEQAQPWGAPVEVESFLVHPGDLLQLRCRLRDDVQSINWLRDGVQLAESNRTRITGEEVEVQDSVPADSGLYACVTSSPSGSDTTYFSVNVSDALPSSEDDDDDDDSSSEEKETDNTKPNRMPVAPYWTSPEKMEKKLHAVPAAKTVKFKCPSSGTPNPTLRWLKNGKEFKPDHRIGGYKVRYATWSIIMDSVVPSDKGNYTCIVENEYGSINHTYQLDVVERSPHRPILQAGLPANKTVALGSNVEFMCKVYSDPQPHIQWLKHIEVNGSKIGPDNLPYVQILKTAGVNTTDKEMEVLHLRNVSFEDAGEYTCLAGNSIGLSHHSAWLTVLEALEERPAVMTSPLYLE
The assay is described as follows: Plate-based binding assay, FGFR1c coated, FLAG-sKL detected with anti-FLAG HRP. Particulars: purified protein. As to the method: as §1

Assay [1] concerns phosphorylated ERK in HEK293T cells. The assay is described as follows: ERK phosphorylation in serum-starved HEK293 cells (Western blotting). It is filed as cell-based, human. Particulars: FGF 1.1 nM for 10 minutes, absence of sKL. As to the method:
The sample (20 μl) was loaded onto Mini-PROTEAN TGX Precast Gel 4-20% for experiments with <9 samples (4568094, Bio-Rad) or Criterion TGX Precast Gel 4-20% (5678094, Bio-Rad) for experiments with >9 samples. Gels were run in 1× Tris/Glycine/SDS buffer (1610732, Bio-Rad) at 150 V and stopped when the sample dye reached the end of the gel. Gels were removed and electrotransferred via a semi-dry cassette (1703940, Bio-Rad) in I× Tris/Glycine buffer (1610734, Bio-Rad) with 20% methanol. Gels were transferred onto polyvinylidene diflouride membranes (IPVH00010, Millipore) at 20 V for 1 hour. Membranes were then blocked in 5% dried milk with 0.5% Tween 20 diluted in Tris-buffered saline (TBST; pH 7.5) for 1 hour and probed with antibodies against specific antigens at 1:1000 in TBST with 5% dried milk. Blots were washed 3× for 5 minutes in TBST and probed with HRP-coupled secondary antibodies against specific species at 1:10,000 in TBST with 5% dried milk. Membranes were imaged on the SRX-101A X-ray film developer (Konica Minolta).
To determine the cellular activity of paracrine FGFs, the activation/phosphorylation of ERK in HEK293 cells after treatment was studied. HEK293 cells were seeded in 6-well plates in DMEM (26140079, Gibco) supplemented with I× Pen/Strep (15140122, Gibco) and 10% FBS (26140079, Gibco) and grown for 48 hours. Upon reaching 80% confluence, cells were serum starved overnight in DMEM and 1× Pen/Strep without FBS. The medium was changed, and cells were treated with sKL at 2 μg/ml or vehicle (sKL elution buffer: 25 mM Tris ph 8.0, 500 mM NaCl) for 15 minutes. Cells were then treated with various FGFs at 1.1 nM for 10 minutes. Cells were lysed in 200 μl of RIPA with the addition of a protease inhibitor (11836153001, Roche) and phosphatase inhibitors (P5726 and P0044, Sigma-Aldrich) for 30 minutes. The mixture was then centrifuged at 20,000 g for 60 minutes to remove all cell debris. One hundred microliters of 1× Laemmli sample buffer (1610737, Bio-Rad) with 1.42 M 2-mercaptoethanol was added, and samples were boiled for 5 minutes. Twenty microliters of samples was loaded onto 12% SDS-PAGE gels and analyzed using Western blotting for total and phosphorylated ERK.

B1: sKL-N694Q: sKL variant with glycosylation site Asn694 substituted by Gln (protein)
chain: EPGDGAQTWARFSRPPAPEAAGLFQGTFPDGFLWAVGSAAYQTEGGWQQHGKGASIWDTFTHHPLAPPGDSRNASLPLGAPSPLQPATGDVASDSYNNVFRDTEALRELGVTHYRFSISWARVLPNGSAGVPNREGLRYYRRLLERLRELGVQPVVTLYHWDLPQRLQDAYGGWANRALADHFRDYAELCFRHFGGQVKYWITIDNPYVVAWHGYATGRLAPGIRGSPRLGYLVAHNLLLAHAKVWHLYNTSFRPTQGGQVSIALSSHWINPRRMTDHSIKECQKSLDFVLGWFAKPVFIDGDYPESMKNNLSSILPDFTESEKKFIKGTADFFALCFGPTLSFQLLDPHMKFRQLESPNLRQLLSWIDLEFNHPQIFIVENGWFVSGTTKRDDAKYMYYLKKFIMETLKAIKLDGVDVIGYTAWSLMDGFEWHRGYSIRRGLFYVDFLSQDKMLLPKSSALFYQKLIEKNGFPPLPENQPLEGTFPCDFAWGVVDNYIQVDTTLSQFTDLNVYLWDVHHSKRLIKVDGVVTKKRKSYCVDFAAIQPQIALLQEMHVTHFRFSLDWALILPLGNQSQVNHTILQYYRCMASELVRVNITPVVALWQPMAPNQGLPRLLARQGAWENPYTALAFAEYARLCFQELGHHVKLWITMNEPYTRQMTYSAGHNLLKAHALAWHVYNEKFRHAQNGKISIALQADWIEPACPFSQKDKEVAERVLEFDIGWLAEPIFGSGDYPWVMRDWLNQRNNFLLPYFTEDEKKLIQGTFDFLALSHYTTILVDSEKEDPIKYNDYLEVQEMTDITWLNSPSQVAVVPWGLRKVLNWLKFKYGDLPMYIISNGIDDGLHAEDDQLRVYYMQNYINEALKAHILDGINLCGYFAYSFNDRTAPRFGLYRYAADQFEPKASMKHYRKIIDSNGFPGPETLERFCPEEFTVCTECSFFHTRKS
modifications: left off: small tags and cut ends
notes: sKL variant with glycosylation site Asn694 substituted by Gln
Turning to B1, the “FGF23 binding of sKL variants in HEK293 cell media compared with wildtype sKL” value with FGF23 is recorded as “increased FGF23 binding”. In addition, in the assay with FGFR1c, the “binding affinity for FGFR1c compared with wildtype sKL” value was “does not affect”.

B2: FGF8b: recombinant human FGF8b from R&D Systems (protein)
chain: QVTVQSSPNFTQHVREQSLVTDQLSRRLIRTYQLYSRTSGKHVQVLANKRINAMAEDGDPFAKLIVETDTFGSRVRVRGAETGLYICMNKKGKLIAKSNGKGKDCVFTEIVLENNYTALQNAKYEGWYMAFTRKGRPRKGSKTRQHQREVHFMKRLPRGHHTTEQSLRFEFLNYPPFTRSLRGSQRTWAPEPR
Take B2: the “ERK phosphorylation induced by FGF” value in assay [1] is given as “induced ERK phosphorylation”.

B3: FGF5: recombinant human FGF5 from R&D Systems (protein)
chain: EKRLAPKGQPGPAATDRNPRGSSSRQSSSSAMSSSSASSSPAASLGSQGSGLEQSSFQWSPSGRRTGSLYCRVGIGFHLQIYPDGKVNGSHEANMLSVLEIFAVSQGIVGIRGVFSNKFLAMSKKGKLHASAKFTDDCKFRERFQENSYNTYASAIHRTEKTGREWYVALNKRGKAKRGCSPRVKPQHISTHFLPRFKQSEQPELSFTVTVPEKKKPPSPIKPKIPLSAPRKNTNSVKYRLKFRFG
With B3, the “ERK phosphorylation induced by FGF” value in assay [1] is “induced ERK phosphorylation”.

For the origin of these results see US20240384250A1, “FIBROBLAST GROWTH FACTOR 23 MODULATING COMPOUNDS” (THE UAB RESEARCH FOUNDATION, priority 2021, published 2024).
